Assay results taken from patent publication US20260209362A1 (VIB VZW, published 2026).

T1: biotinylated recombinant human IL-12Rβ2 (human, UniProt Q99665 24-622, random biotinylated)
T1 construct: Recombinant protein produced in-house, biotinylated; also called hIL-12RB2; human IL-12RB2
T1 sequence: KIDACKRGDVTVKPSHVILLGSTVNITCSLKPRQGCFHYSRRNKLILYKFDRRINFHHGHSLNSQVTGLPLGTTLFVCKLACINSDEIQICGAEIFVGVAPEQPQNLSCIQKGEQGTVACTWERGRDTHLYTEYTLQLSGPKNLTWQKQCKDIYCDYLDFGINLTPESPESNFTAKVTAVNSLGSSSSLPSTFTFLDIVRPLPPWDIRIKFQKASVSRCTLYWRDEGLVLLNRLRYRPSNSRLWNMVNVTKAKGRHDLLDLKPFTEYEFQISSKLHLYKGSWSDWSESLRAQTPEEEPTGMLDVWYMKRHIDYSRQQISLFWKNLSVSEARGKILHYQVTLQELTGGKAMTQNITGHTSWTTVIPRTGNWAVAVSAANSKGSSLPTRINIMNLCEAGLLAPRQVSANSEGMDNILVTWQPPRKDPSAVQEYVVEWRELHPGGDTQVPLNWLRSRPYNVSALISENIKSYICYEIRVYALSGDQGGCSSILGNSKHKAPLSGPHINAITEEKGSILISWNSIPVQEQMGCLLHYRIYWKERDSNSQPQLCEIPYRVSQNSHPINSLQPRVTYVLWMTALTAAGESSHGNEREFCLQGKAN

T2: biotinylated recombinant mouse IL-12Rβ2 (mouse, UniProt P97378 24-637, random biotinylated)
T2 construct: Recombinant protein produced in-house, biotinylated; also called mIL-12RB2; mouse IL-12RB2
T2 sequence: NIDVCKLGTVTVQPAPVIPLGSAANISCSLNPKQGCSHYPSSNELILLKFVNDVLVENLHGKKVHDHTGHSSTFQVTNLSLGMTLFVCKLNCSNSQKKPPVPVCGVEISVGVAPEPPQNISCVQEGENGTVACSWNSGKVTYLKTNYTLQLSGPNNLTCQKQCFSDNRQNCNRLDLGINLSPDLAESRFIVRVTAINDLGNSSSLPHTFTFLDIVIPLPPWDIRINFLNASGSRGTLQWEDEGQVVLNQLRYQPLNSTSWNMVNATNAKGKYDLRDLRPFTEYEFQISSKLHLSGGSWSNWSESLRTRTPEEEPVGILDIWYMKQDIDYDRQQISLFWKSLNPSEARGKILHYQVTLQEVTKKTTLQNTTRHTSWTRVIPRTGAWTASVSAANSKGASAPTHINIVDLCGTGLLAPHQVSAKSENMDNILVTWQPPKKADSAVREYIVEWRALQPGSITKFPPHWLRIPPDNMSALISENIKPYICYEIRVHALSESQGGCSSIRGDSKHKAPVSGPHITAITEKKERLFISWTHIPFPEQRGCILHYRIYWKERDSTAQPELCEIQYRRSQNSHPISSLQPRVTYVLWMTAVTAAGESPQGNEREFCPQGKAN


Tests used:
[1] = target: T1, biotinylated recombinant human IL-12Rβ2; assay: ELISA, periplasmic extract on biotinylated hIL-12Rβ2, signal over control wells
[2] = target: T2, biotinylated recombinant mouse IL-12Rβ2; assay: ELISA, periplasmic extract on biotinylated mIL-12Rβ2, signal over control wells

Binder | ELISA binding hIL-12RB2/control [1] | ELISA binding mIL-12RB2/control [2]
anti-IL-12Rβ2 VHH clone 20497 (VHH, not shown: small tags and cut ends, tested as periplasmic extract; also called 2CAM72) VHH: QVQLQESGGGLVQAGDSLRLSCAASGRTFSSYGMGWFRQAPGKEREFVAAISRGARITDYADSVKGRFTISRDNAKNTAYLQMNSLNPEDTAVYFCAAAYTYSGSHYVTARSSDYHSWGQGTQVTVSS | 0.932 ratio | 13.4 ratio
anti-IL-12Rβ2 VHH clone 20499 (VHH, not shown: small tags and cut ends, tested as periplasmic extract; also called 2CAM75) VHH: QVQLQESGGGLVQAGGSLRLSCAASGRTFSSYGMGWFRQAPGKEREFVAAISRDASITDYADSVKGRFTISRDNAKNTAYLEMNSLNPEDTAVYFCAAAYTYSGSHYVTARSSDYHSWGQGTQVTVSS | 0.985 ratio | 10.4 ratio
anti-IL-12Rβ2 VHH clone 20500 (VHH, not shown: small tags and cut ends, tested as periplasmic extract; also called 2CAM81) VHH: QVQLQESGGGLVQPGGSLRLSCAASGFTFSSYGMGWFRQAPGKEREFVAAISRDARITDYADSVKGRFTISRDNAKNTAYLEMNSLNPEDTAVYFCAAAYTYSGSHYVTARSSDYHSWGQGTQVTVSS | 0.982 ratio | 24 ratio
anti-IL-12Rβ2 VHH clone 20504 (VHH, not shown: small tags and cut ends, tested as periplasmic extract; also called 3CAM3) VHH: QVQLQESGGGLVQAGGSLKLSCAATGFILDYVGVGWFRQAPGKERDFVAAISRDARITDYADSVKGRFTISRDNAKNTAYLQMNSLNPEDTAVYFCAAAYTYSGSHYVTARSSDYHTWGQGTQVTVSS | 1.27 ratio | 14.5 ratio
anti-IL-12Rβ2 VHH clone 20505 (VHH, not shown: small tags and cut ends, tested as periplasmic extract; also called 3CAM4) VHH: QVQLQESGGGSVQAGGSLRLSCAASGRTFSSYGMGWFRQAPGKEREFVAAISRDARITDYADSVKGRFTISRDNAKNTAYLEMNSLNPEDTAVYFCAAAYTYSGSHYVTARSSDYHSWGQGTQVTVSS | 1.07 ratio | 20.2 ratio
anti-IL-12Rβ2 VHH clone 20509 (VHH, not shown: small tags and cut ends, tested as periplasmic extract; also called 3CAM30) VHH: QVQLQESGGGLVQAGGSLRLSCAAAGRTFSSYGMGWFRQAPGKERDFVAAISRDARITDYADSVKGRFTISRDNAKNTAYLQMNSLNPEDTAVYFCAAAYTYSGSHYVTARSSDYHTWGQGTQDTVSS | 1.31 ratio | 10 ratio
anti-IL-12Rβ2 VHH clone 20511 (VHH, not shown: small tags and cut ends, tested as periplasmic extract; also called 3CAM36) VHH: QVQLQESGGGLVQAGESLTLSCTASGRTFSSYGMGWFRQAPGKERDFVAAISRDARYTDYADSVKGRFTISKDNAKNTAYLQMNSLNPEDTAVYFCAAAYTYSGSHYVTARSGDYNYWGQGTQVTVSS | 1.2 ratio | 25.6 ratio
anti-IL-12Rβ2 VHH clone 20514 (VHH, not shown: small tags and cut ends, tested as periplasmic extract; also called 3CAM70) VHH: QVQLQESGGGLVQAGDSLRLSCIASGPSFSSYGMGWFRQAPGKEREFVAAISRDARITDYADSVKGRFTISRDNAKNTAYLEMNSLNPEDTAVYFCAAAYTYSGSHYVTARSSDYHSWGQGTQVTVSS | 1.03 ratio | 17.8 ratio
anti-IL-12Rβ2 VHH clone 20516 (VHH, not shown: small tags and cut ends, tested as periplasmic extract; also called 3CAM85) VHH: QVQLQESGGGLVQAGGSLRLSCAASGRTFSSYGMSWFRQAPGKERDFVAAISRDARITDYADSVKGRFTISRDNVKNTVYLQMNSLNPEDTAVYFCAAAYTYSGSHYVTARSSDYHSWGQGTQVTVSS | 1.23 ratio | 21.8 ratio
anti-IL-12Rβ2 VHH clone 20536 (VHH, not shown: small tags and cut ends, tested as periplasmic extract; also called 2CAMS53) VHH: QVQLQESGGGMVQAGGSLRLSCAASGRTFSSYGMGWFRQAPGKEREFVAAISRGARNTDYADSVKGRFTISRDNAKNTAYLQMNSLNPEDTAVYFCAAAYTYSGSHYVTARSSDYPYWGQGTQVTVSS | 0.842 ratio | 3.38 ratio
anti-IL-12Rβ2 VHH clone 20538 (VHH, not shown: small tags and cut ends, tested as periplasmic extract; also called 2CAMS83) VHH: QVQLQESGGGLVQPGDSLRLSCAASGRTFSSYGMGWFRQAPGKEREFVAAISRGARNTDYADSVKGRFTISRDNAKNTAYLQMNSLNPEDTAVYFCAAAYTYSGSHYVTARSSDYPYWGQGTQVTVSS | 1.07 ratio | 4.78 ratio
anti-IL-12Rβ2 VHH clone 20539 (VHH, not shown: small tags and cut ends, tested as periplasmic extract; also called 2CAMS87) VHH: QVQLQESGGGLVQAGGSLRLSCAASGRTFSSYGMGWFRQAPGKEREFVAAISRGARNTDYADSVKGRFTISRDNAKNTAFLQMNSLNPEDTAVYFCAAAYTYSGSHYVTARSSDYHTWGQGTQVTVSS | 1.03 ratio | 4.89 ratio
anti-IL-12Rβ2 VHH clone 20540 (VHH, not shown: small tags and cut ends, tested as periplasmic extract; also called 3CAMS5) VHH: QVQLQESGGGLVQAGDSLRISCAASGRTFSSYGMGWFRQAPGKERDFVAAISRDARYTDYADSVKGRFTISKDNAKNTAYLQMNSLNPEDTAVYFCAAAYTYSGSHYVTARSGDYNYWGQGTQVTVSS | 0.834 ratio | 8.57 ratio
anti-IL-12Rβ2 VHH clone 20541 (VHH, not shown: small tags and cut ends, tested as periplasmic extract; also called 3CAMS9) VHH: QVQLQESGGGLVQAGGSLRLSCAASGRTFSSYGMGWFRQAPGKEREFVAAISRDARITDYADSVKGRFTISRDNAKNTAYLEMNSLNPEDTAVYSCAAAYTYSGSHYVTARSSDYHSWGQGTQVTVSS | 0.915 ratio | 5.66 ratio
anti-IL-12Rβ2 VHH clone 20544 (VHH, not shown: small tags and cut ends, tested as periplasmic extract; also called 3CAMS19) VHH: QVQLQESGGGLVQAGGPLRLSCAASGRTFSSYGMGWFRQAPGKERDFVAAISRDARITDYADSVKGRFTISRDNVKNTVYLQMNSLNPEDTAVYFCAAAYTYSGSHYVTARSSDYHSWGQGTQVTVSS | 0.919 ratio | 9.31 ratio
anti-IL-12Rβ2 VHH clone 20547 (VHH, not shown: small tags and cut ends, tested as periplasmic extract; also called 3CAMS47) VHH: QVQLQESGGGLVQAGGSLRLSCAASGRTFSSYGMGWFRQAPGKERDFVAAISRGARNADYADSVKGRFTISRDNAKNTAYLQMNSLNPEDTAVYFCAAAYTYSGSHYVTARSSDYAYWGQGTQVTVSS | 1.02 ratio | 5.12 ratio
anti-IL-12Rβ2 VHH clone 20548 (VHH, not shown: small tags and cut ends, tested as periplasmic extract; also called 3CAMS50) VHH: QVQLQESGGGLVQAGGSLRLSCADSGRTFSSYGMGWFRQAPGKEREFVAAISRGARITDYADSVKGRFTISRDNAKNTAYLQMNSLNPEDTAVYFCAAAYTYSGSHYVTARSSDYHSWGQGTQVTVSS | 0.951 ratio | 8.98 ratio
anti-IL-12Rβ2 VHH clone 20478 (VHH, not shown: small tags and cut ends, tested as periplasmic extract; also called 2CAM30) VHH: QVQLQESGGGLVQAGGSLTLSCAASGMPISFNVLGWFRQIPGKERDFVAAISRDARITDYADSVKGRFTISRDNVKNTVYLQMNSLNPEDTAVYFCAAAYTYSGSHYVTARSSDYHSWGQGTQVTVSS | 1.02 ratio | 8.78 ratio
anti-IL-12Rβ2 VHH clone 20498 (VHH, not shown: small tags and cut ends, tested as periplasmic extract; also called 2CAM73) VHH: QVQLQESGGGLVQAGGSLRLSCASSGRTFSSRTVGWFRQAPGKERYFVAAISRDTAYTDYADSVKGRFTISRGNAKNTVYLQMNSLNPEDTAVYYCAASHIYSGSHYISARSSDYMYWGQGTQVTVSS | 0.994 ratio | 6.62 ratio
anti-IL-12Rβ2 VHH clone 20444 (VHH, not shown: small tags and cut ends, tested as periplasmic extract; also called 2CRM18) VHH: QVQLQESGGGLVQAGGSLRLSCTASGSIFAIDDMYWYRQAPGKQREFVAYITATNSANYLDSVNGRFTISRDNAKNSVYLQMNSLKPEDTAVYYCNAKQIVGFQIDEYWGQGTQVTVSS | 0.985 ratio | 4.68 ratio
anti-IL-12Rβ2 VHH clone 20442 (VHH, not shown: small tags and cut ends, tested as periplasmic extract; also called 2CRM12) VHH: QVQLQESGGGLVQPGGSLRLSCTASGSIFAIDDMYWYRQAPGKQREFVAYITATNSANYLDSVNGRFTISRDNAKNSVYLQMNSLKPEDTAVYYCNAKQIVGFQIDEYWGQGTQVTVSS | 0.993 ratio | 6.67 ratio
